Results from the supplement of paper PMC12667976.
± gives the standard error.

B1: library; numbered along this chain (parent)
chain: MATDAALRRLLRLHRTEIAVAVDSAFPLLHALADHDVVPEDKFQETLHLKEKEGCPQAFHALLSWLLTQDSTAILDFWRVLFKDYNLERYGRLQPILDSFPKDVDLSQPRKGRKPPAVPKALVPPPRLPTKRKASEEARAAAPAALTPRGTASPGSQLKAKPPKKPESSAEQQRLPLGNGIQTMSASVQRAVAMSSGDVPGARGAVEGILIQQVFESGGSKKCIQVGGEFYTPSKFEDSGSGKNKARSSSGPKPLVRAKGAQGAAPGGGEARLGQQGSVPAPLALPSDPQLHQKNEDECAVCRDGGELICCDGCPRAFHLACLSPPLREIPSGTWRCSSCLQATVQEVQPRAEEPRPQEPPVETPLPPGLRSAGEEVRGPPGEPLAGMDTTLVYKHLPAPPSAAPLPGLDSSALHPLLCVGPEGQQNLAPGARCGVCGDGTDVLRCTHCAAAFHWRCHFPAGTSRPGTGLRCRSCSGDVTPAPVEGVLAPSPARLAPGPAKDDTASHEPALHRDDLESLLSEHTFDGILQWAIQSMARPAAPFPS

Variants of: B1
Experiment: AIRE transcriptional activation functional score (insulin promoter-GFP; nonsense median 0, synonymous median 1) (normalised score); higher = higher AIRE activity (more reporter activation)
Conditions: with insulin promoter-GFP reporter in HEK293
Outline: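 Flp-In T-REx HEK293 landing-pad cells carrying an insulin core promoter-GFP reporter received codon-optimized AIRE NNN-codon libraries (three regions) through Bxb1 recombinase. Sorting of mCherry+, BFP− integrants took place at day 7, followed by 7 days of expansion and tile-sequencing of top 10% GFP and unselected integrant populations. A functional score was derived from select versus non-select variant enrichment with wild type subtracted. Values from variants reaching 10 counts per million in non-select were set to nonsense median 0 and synonymous median 1 and averaged over biological replicates.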

Question: Which “AIRE transcriptional activation functional score” value does the source give for G180R here?
Answer: The value was 1.63 ± 0.47.

Question: G435Y was tested. Which “AIRE transcriptional activation functional score” value did it give?
Answer: The value was 0.365 ± 0.14.

Question: How did the “AIRE transcriptional activation functional score” value turn out when S506A was run?
Answer: The value was 1.36 ± 0.094.

Question: S506K was tested. Which “AIRE transcriptional activation functional score” value did it give?
Answer: The value was 0.443 ± 0.06.

Question: L87Y was tested. Which “AIRE transcriptional activation functional score” value did it give?
Answer: The value was -0.162 ± 0.25.

Question: Which “AIRE transcriptional activation functional score” value does the source give for L87S here?
Answer: The value was 0.0056 ± 0.76.

Question: Which “AIRE transcriptional activation functional score” value does the source give for V487T here?
Answer: Its value is 1.5 ± 0.077.

Question: With E88I as the variant, how does the “AIRE transcriptional activation functional score” value read?
Answer: The value was 0.434 ± 0.27.

Question: F453V was tested. Which “AIRE transcriptional activation functional score” value did it give?
Answer: Its value is 0.154 ± 0.15.

Question: With K102G as the variant, how does the “AIRE transcriptional activation functional score” value read?
Answer: Its value is 0.563 ± 0.55.

Question: How did the “AIRE transcriptional activation functional score” value turn out when R89F was run?
Answer: Its value is 1.93 ± 0.058.

Question: How did the “AIRE transcriptional activation functional score” value turn out when L283C was run?
Answer: The value was 0.771 ± 0.21.

Question: With L283R as the variant, how does the “AIRE transcriptional activation functional score” value read?
Answer: Its value is 1 ± 0.23.

Question: H396C was tested. Which “AIRE transcriptional activation functional score” value did it give?
Answer: The value was 1.33 ± 0.047.

Question: With H396F as the variant, how does the “AIRE transcriptional activation functional score” value read?
Answer: The value was 1.15 ± 0.14.

Question: How did the “AIRE transcriptional activation functional score” value turn out when Y85S was run?
Answer: The value was 0.113 ± 0.28.

Question: Y85T was tested. Which “AIRE transcriptional activation functional score” value did it give?
Answer: Its value is 0.418 ± 0.14.

Question: Which “AIRE transcriptional activation functional score” value does the source give for N427R here?
Answer: The value was 0.362 ± 0.17.

Question: For G333W, which “AIRE transcriptional activation functional score” value is on record?
Answer: The value was 1.82 ± 0.046.

Question: With G333P as the variant, how does the “AIRE transcriptional activation functional score” value read?
Answer: Its value is 0.594 ± 0.3.

Question: G333K was tested. Which “AIRE transcriptional activation functional score” value did it give?
Answer: The value was 1.24 ± 0.25.

Question: How did the “AIRE transcriptional activation functional score” value turn out when I224V was run?
Answer: Its value is 0.58 ± 0.23.

Question: For Q44H, which “AIRE transcriptional activation functional score” value is on record?
Answer: Its value is -0.545 ± 0.61.

Question: For K159F, which “AIRE transcriptional activation functional score” value is on record?
Answer: Its value is 1.44 ± 0.11.

Question: M536C was tested. Which “AIRE transcriptional activation functional score” value did it give?
Answer: The value was 1.08 ± 0.067.

Question: M536D was tested. Which “AIRE transcriptional activation functional score” value did it give?
Answer: Its value is 0.726 ± 0.089.

Question: How did the “AIRE transcriptional activation functional score” value turn out when E353C was run?
Answer: The value was 1.2 ± 0.23.

Question: With T441R as the variant, how does the “AIRE transcriptional activation functional score” value read?
Answer: The value was 0.696 ± 0.32.

Question: L516N was tested. Which “AIRE transcriptional activation functional score” value did it give?
Answer: The value was 0.207 ± 0.055.

Question: Which “AIRE transcriptional activation functional score” value does the source give for L516Y here?
Answer: The value was 1.01 ± 0.34.

Question: With A452P as the variant, how does the “AIRE transcriptional activation functional score” value read?
Answer: The value was 0.719 ± 0.14.

Question: How did the “AIRE transcriptional activation functional score” value turn out when S24P was run?
Answer: Its value is -0.246 ± 0.32.

Question: How did the “AIRE transcriptional activation functional score” value turn out when Q349W was run?
Answer: Its value is 1.55 ± 0.08.

Question: P466N was tested. Which “AIRE transcriptional activation functional score” value did it give?
Answer: Its value is 0.444 ± 0.26.

Question: Which “AIRE transcriptional activation functional score” value does the source give for P466T here?
Answer: Its value is 1.12 ± 0.2.

Question: How did the “AIRE transcriptional activation functional score” value turn out when K395M was run?
Answer: The value was 2.5 ± 0.11.

Question: For K395C, which “AIRE transcriptional activation functional score” value is on record?
Answer: The value was 0.49 ± 0.85.

Question: With K395I as the variant, how does the “AIRE transcriptional activation functional score” value read?
Answer: The value was 0.422 ± 0.1.

Question: With P115T as the variant, how does the “AIRE transcriptional activation functional score” value read?
Answer: Its value is 0.525 ± 0.52.

Question: Which “AIRE transcriptional activation functional score” value does the source give for C302W here?
Answer: Its value is 0.72 ± 0.026.

Question: For P200N, which “AIRE transcriptional activation functional score” value is on record?
Answer: The value was 1.12 ± 0.082.

Question: P200F was tested. Which “AIRE transcriptional activation functional score” value did it give?
Answer: Its value is 0.777 ± 0.045.

Question: P282D was tested. Which “AIRE transcriptional activation functional score” value did it give?
Answer: The value was 1.05 ± 0.057.

Question: How did the “AIRE transcriptional activation functional score” value turn out when P282C was run?
Answer: Its value is 2.16 ± 0.071.

Question: Which “AIRE transcriptional activation functional score” value does the source give for P282L here?
Answer: Its value is 1.31 ± 0.25.

Question: How did the “AIRE transcriptional activation functional score” value turn out when H454S was run?
Answer: The value was -0.00319 ± 0.2.

Question: P357T was tested. Which “AIRE transcriptional activation functional score” value did it give?
Answer: The value was 1.1 ± 0.11.

Question: W531M was tested. Which “AIRE transcriptional activation functional score” value did it give?
Answer: Its value is 0.434 ± 0.045.

Question: With G112S as the variant, how does the “AIRE transcriptional activation functional score” value read?
Answer: The value was 0.851 ± 0.57.

Question: For V104P, which “AIRE transcriptional activation functional score” value is on record?
Answer: Its value is 0.45 ± 0.086.

Question: V104L was tested. Which “AIRE transcriptional activation functional score” value did it give?
Answer: Its value is 0.894 ± 0.53.

Question: For G469C, which “AIRE transcriptional activation functional score” value is on record?
Answer: Its value is 1.56 ± 0.064.

Question: How did the “AIRE transcriptional activation functional score” value turn out when A505G was run?
Answer: The value was 0.337 ± 0.36.

Question: Which “AIRE transcriptional activation functional score” value does the source give for L444E here?
Answer: Its value is 0.903 ± 0.13.

Question: With L444P as the variant, how does the “AIRE transcriptional activation functional score” value read?
Answer: The value was 0.0281 ± 0.11.

Question: How did the “AIRE transcriptional activation functional score” value turn out when C434A was run?
Answer: Its value is 0.14 ± 0.15.

Question: How did the “AIRE transcriptional activation functional score” value turn out when A451T was run?
Answer: The value was 0.528 ± 0.23.

Question: A451H was tested. Which “AIRE transcriptional activation functional score” value did it give?
Answer: Its value is 0.282 ± 0.15.

Question: For A451D, which “AIRE transcriptional activation functional score” value is on record?
Answer: The value was 0.631 ± 0.11.

Question: For G277A, which “AIRE transcriptional activation functional score” value is on record?
Answer: Its value is 1.46 ± 0.16.

Question: For G277C, which “AIRE transcriptional activation functional score” value is on record?
Answer: The value was 1.38 ± 0.068.

Question: How did the “AIRE transcriptional activation functional score” value turn out when F543R was run?
Answer: The value was 0.296 ± 0.13.

Question: Which “AIRE transcriptional activation functional score” value does the source give for E17G here?
Answer: Its value is -0.233 ± 0.71.

Question: L285R was tested. Which “AIRE transcriptional activation functional score” value did it give?
Answer: Its value is 1.02 ± 0.33.

Question: With A170I as the variant, how does the “AIRE transcriptional activation functional score” value read?
Answer: The value was 0.784 ± 0.32.

Question: How did the “AIRE transcriptional activation functional score” value turn out when V20A was run?
Answer: Its value is -0.889 ± 0.64.

Question: V20I was tested. Which “AIRE transcriptional activation functional score” value did it give?
Answer: Its value is 1.31 ± 0.54.

Question: With V20W as the variant, how does the “AIRE transcriptional activation functional score” value read?
Answer: The value was 0.633 ± 0.12.

Question: Which “AIRE transcriptional activation functional score” value does the source give for L67T here?
Answer: The value was -0.29 ± 0.49.

Question: Which “AIRE transcriptional activation functional score” value does the source give for Q342N here?
Answer: Its value is 0.925 ± 0.32.

Question: How did the “AIRE transcriptional activation functional score” value turn out when A33T was run?
Answer: The value was 0.426 ± 0.27.

Question: With A33G as the variant, how does the “AIRE transcriptional activation functional score” value read?
Answer: Its value is 0.554 ± 0.5.

Question: A33F was tested. Which “AIRE transcriptional activation functional score” value did it give?
Answer: The value was 0.348 ± 0.42.

Question: S135P was tested. Which “AIRE transcriptional activation functional score” value did it give?
Answer: The value was 0.181 ± 0.27.

Question: With A300H as the variant, how does the “AIRE transcriptional activation functional score” value read?
Answer: Its value is 0.907 ± 0.31.

Question: For V479A, which “AIRE transcriptional activation functional score” value is on record?
Answer: The value was 0.734 ± 0.36.

Question: Which “AIRE transcriptional activation functional score” value does the source give for V479C here?
Answer: The value was 1.15 ± 0.25.

Question: With L122T as the variant, how does the “AIRE transcriptional activation functional score” value read?
Answer: Its value is 0.686 ± 0.11.

Question: M184S was tested. Which “AIRE transcriptional activation functional score” value did it give?
Answer: The value was 0.488 ± 0.41.

Question: With S474G as the variant, how does the “AIRE transcriptional activation functional score” value read?
Answer: Its value is 0.801 ± 0.26.

Question: Which “AIRE transcriptional activation functional score” value does the source give for C299M here?
Answer: Its value is 0.737 ± 0.18.

Question: For A489H, which “AIRE transcriptional activation functional score” value is on record?
Answer: The value was 1.18 ± 0.099.

Question: Which “AIRE transcriptional activation functional score” value does the source give for I330C here?
Answer: Its value is 0.866 ± 0.3.

Question: With E307S as the variant, how does the “AIRE transcriptional activation functional score” value read?
Answer: Its value is 1.2 ± 0.34.
